The values below come from paper PMC6770759.

The target of this assay is porcine pancreatic elastase (porcine) (UniProt P00772).
Sequence of UniProt P00772 (P00772 27-266): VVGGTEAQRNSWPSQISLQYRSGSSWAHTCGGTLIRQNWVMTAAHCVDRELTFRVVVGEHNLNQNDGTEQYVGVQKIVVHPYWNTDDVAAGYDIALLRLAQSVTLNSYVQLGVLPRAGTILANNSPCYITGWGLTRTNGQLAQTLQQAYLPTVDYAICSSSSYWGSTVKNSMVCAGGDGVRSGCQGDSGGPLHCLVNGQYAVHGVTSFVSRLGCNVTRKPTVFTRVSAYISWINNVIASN

In turn, “Alpha-1-antitrypsin (standard AAT, purified from human plasma) (from UniProt P01009 25-418) (natural protein)” had an elastase inhibition % (hydrolysis of N-succinyl-tri-l-alanine-4-nitroanilide read at 410 nm), AAT from 7.5 to 120 µg/mL of 97%.
